From patent US20090196877A1

Target: SIINFEKL/H-2 Kb (mouse) (UniProt P01901)

expression of the cell surface markers CD44, CD69 and CD25 on OT-1 cells after stimulation with irradiated CD80/EG7: 100%
Substance: OT-1 T cell Receptor (TCR) of OT-1 TCR transgenic T cells
